Target: T1, human TIGIT-mFc (human; mouse, UniProt Q495A1 22-141, limits assumed)
T1 construct: also called antigen TIGIT-mFc; TIGIT-mnFc
Assay: BLI (Fortebio), TIGIT-mFc on AMC sensor, 37 C, 1:1 fit
Description: The sample dilution buffer was PBS (0.02% Tween-20, 0.1% BSA, pH 7.4). TIGIT-mFc was immobilized on an AMC sensor at a concentration of […] for 50 s, and the sensor was equilibrated in the buffer for 60 s. The TIGIT-mFc immobilized on the sensor was allowed to bind to the antibody at concentrations of 0.06-5 nM (three-fold dilutions) for 120 s, and the protein was dissociated in the buffer for 300 s. The sensor was regenerated in 10 mM glycine solution (pH=1.7). The detection temperature was 37° C., the detection frequency was 0.3 Hz, and the sample plate shaking rate was 1000 rpm. The data were analyzed by 1:1 model fitting to obtain affinity constants.

T1 sequence (Q495A1 other isoform, or with tags, fused parts or gaps limits assumed): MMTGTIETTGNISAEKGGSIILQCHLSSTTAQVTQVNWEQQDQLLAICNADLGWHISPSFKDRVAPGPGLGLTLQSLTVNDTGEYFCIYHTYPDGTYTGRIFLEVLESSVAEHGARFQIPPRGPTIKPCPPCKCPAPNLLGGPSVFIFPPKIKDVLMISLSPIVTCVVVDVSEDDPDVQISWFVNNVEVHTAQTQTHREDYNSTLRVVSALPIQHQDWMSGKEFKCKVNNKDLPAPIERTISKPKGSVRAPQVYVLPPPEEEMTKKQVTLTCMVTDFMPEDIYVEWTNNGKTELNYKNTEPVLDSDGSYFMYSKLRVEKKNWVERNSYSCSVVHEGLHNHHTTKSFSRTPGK

B1: RG6058 (antibody, V domains shown)
VH: EVQLQQSGPGLVKPSQTLSLTCAISGDSVSSNSAAWNWIRQSPSRGLEWLGKTYYRFKWYSDYAVSVKGRITINPDTSKNQFSLQLNSVTPEDTAVFYCTRESTTYDLLAGPFDYWGQGTLVTVSS
VL: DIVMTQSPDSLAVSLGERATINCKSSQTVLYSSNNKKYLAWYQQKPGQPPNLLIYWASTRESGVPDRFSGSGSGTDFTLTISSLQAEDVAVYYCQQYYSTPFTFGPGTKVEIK
Maximum signal height of analyte (nm): 0.16 nm | S E(kdis): 3.46e-05 s⁻¹
